According to IntAct's records for PubMed 16002617:

B1: Cyclic dof factor 1 (Arabidopsis thaliana (Mouse-ear cress)), Q8W1E3 (parent)
chain: MLETKDPAIKLFGMKIPFPTVLEVADEEEEKNQNKTLTDQSEKDKTLKKPTKILPCPRCNSMETKFCYYNNYNVNQPRHFCKACQRYWTSGGTMRSVPIGAGRRKNKNNSPTSHYHHVTISETNGPVLSFSLGDDQKVSSNRFGNQKLVARIENNDERSNNNTSNGLNCFPGVSWPYTWNPAFYPVYPYWSMPVLSSPVSSSPTSTLGKHSRDEDETVKQKQRNGSVLVPKTLRIDDPNEAAKSSIWTTLGIKNEVMFNGFGSKKEVKLSNKEETETSLVLCANPAALSRSINFHEQM

Variants of: B1
Conditions: with ado3_arath ADO3, Q9C9W9
ado3_arath ADO3, Q9C9W9, sequence (Q9C9W9 whole entry): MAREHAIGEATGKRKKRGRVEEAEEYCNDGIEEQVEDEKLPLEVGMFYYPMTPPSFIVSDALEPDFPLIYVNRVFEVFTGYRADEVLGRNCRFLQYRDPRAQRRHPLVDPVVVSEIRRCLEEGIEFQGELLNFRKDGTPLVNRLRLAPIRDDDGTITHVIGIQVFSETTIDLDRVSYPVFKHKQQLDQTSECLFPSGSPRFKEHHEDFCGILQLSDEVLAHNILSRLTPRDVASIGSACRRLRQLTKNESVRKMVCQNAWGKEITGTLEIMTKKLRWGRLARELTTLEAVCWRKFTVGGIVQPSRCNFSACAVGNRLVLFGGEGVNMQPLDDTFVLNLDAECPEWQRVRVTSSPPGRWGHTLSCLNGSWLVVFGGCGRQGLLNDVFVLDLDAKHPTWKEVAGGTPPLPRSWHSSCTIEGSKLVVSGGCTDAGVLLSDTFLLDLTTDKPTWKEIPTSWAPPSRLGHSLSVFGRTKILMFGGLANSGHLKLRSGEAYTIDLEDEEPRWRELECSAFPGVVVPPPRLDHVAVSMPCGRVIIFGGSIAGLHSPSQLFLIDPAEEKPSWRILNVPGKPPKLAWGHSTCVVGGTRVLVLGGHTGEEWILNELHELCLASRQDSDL

effect of a mutation on the interaction | Variant
decreasing interaction | K253A
